Results taken from patent US20200340060A1, “COMPOSITIONS AND METHODS FOR IDENTIFYING AND TREATING LIVER DISEASES AND MONITORING TREATMENT OUTCOMES” (Gilead Sciences, Inc., priority 2017, published 2020).

System: liver fibrosis in NASH subjects
Assay: Simtuzumab clinical studies (SIM 0105/0106) in NASH, CRN fibrosis stage change at week 48
Assay type: in vivo, human
Conditions: SIM study samples

B1: simtuzumab (antibody, chains of the INN, looked up, V domains shown)
VH: QVQLVQSGAEVKKPGASVKVSCKASGYAFTYYLIEWVRQAPGQGLEWIGVINPGSGGTNYNEKFKGRATITADKSTSTAYMELSSLRSEDTAVYFCARNWMNFDYWGQGTTVTVSS
VL: DIVMTQTPLSLSVTPGQPASISCRSSKSLLHSNGNTYLYWFLQKPGQSPQFLIYRMSNLASGVPDRFSGSGSGTDFTLKISRVEAEDVGVYYCMQHLEYPYTFGGGTKVEIK
For B1, the “efficacy on fibrosis stage change” value was “lack of efficacy”.
